The values below come from patent publication US20050100965A1.

This assay addresses recombinant IL18 (YK27-1) (Homo sapiens (Human)) (UniProt Q14116). Kind of assay: cell-based or functional assay.

B1: Murine anti-human IL-18 mAb (125-2H) (antibody, from another filing, V domains shown)
VH: EIQLQQSGPELVKPGASVKVSCKASGYSFTDYFIYWVKQSHGKSLEWIGDIDPYNGDTSYNQKFRDKATLTVDQSSTTAFMHLNSLTSEDSAVYFCARGLRFWGQGTLVTVSA
VL: DIQMTQSPSSLSASLGERVSLTCRASQDIGSKLYWLQQEPDGTFKRLIYATSSLDSGVPKRFSGSRSGSDYSLTISSLESEDFVDYYCLQYASSPYTFGGGTKLAIKR
Regarding B1, the IFN (interferon γ) transcript level, quantitative PCR, whole blood stimulated with IL18+IL12, donor1n (Unstimulated 0.002, Stimulated 0.339) amounted to 0.07; the IFN (interferon γ) transcript level, quantitative PCR, whole blood stimulated with IL18+IL12, donor 3n (Unstimulated 0.001, Stimulated 0.187) stood at 0.026; the IFN (interferon γ) transcript level, quantitative PCR, whole blood stimulated with IL18+IL12, donor4n (Unstimulated 0.001, Stimulated 0.082) stood at 0.027; the IFN (interferon γ) transcript level, quantitative PCR, whole blood stimulated with IL18+IL12, donor 5n (Unstimulated 0.003, Stimulated 0.012) worked out at 0.006. The IFN (interferon γ) transcript level, quantitative PCR, whole blood stimulated with IL18+IL12, donor6n (Unstimulated 0.002, Stimulated 0.076) came out at 0.01; the IFN (interferon γ) transcript level, quantitative PCR, whole blood stimulated with IL18+IL12, donor7n (Unstimulated 0.002, Stimulated 0.049) was 0.012; the IFN (interferon γ) transcript level, quantitative PCR, whole blood stimulated with IL18+IL12, donor8n (Unstimulated 0.002, Stimulated 0.049) was 0.012; the IFN (interferon γ) transcript level, quantitative PCR, whole blood stimulated with IL18+IL12, donor 9n (Unstimulated 0.001, Stimulated 1.250) was 0. The IFN (interferon γ) transcript level, quantitative PCR, whole blood stimulated with IL18+IL12, donor10n (Unstimulated 0.002, Stimulated 0.361) came out at 0.002.
